The source of these data is IntAct's records for PubMed 30591568.

First the molecules themselves.
B1: Poliovirus receptor (Homo sapiens), P15151 (parent)
chain: MARAMAAAWPLLLVALLVLSWPPPGTGDVVVQAPTQVPGFLGDSVTLPCYLQVPNMEVTHVSQLTWARHGESGSMAVFHQTQGPSYSESKRLEFVAARLGAELRNASLRMFGLRVEDEGNYTCLFVTFPQGSRSVDIWLRVLAKPQNTAEVQKVQLTGEPVPMARCVSTGGRPPAQITWHSDLGGMPNTSQVPGFLSGTVTVTSLWILVPSSQVDGKNVTCKVEHESFEKPQLLTVNLTVYYPPEVSISGYDNNWYLGQNEATLTCDARSNPEPTGYNWSTTMGPLPPFAVAQGAQLLIRPVDKPINTTLICNVTNALGARQAELTVQVKEGPPSEHSGISRNAIIFLVLGILVFLILLGIGIYFYWSKCSREVLWHCHLCPSSTEHASASANGHVSYSAVSRENSSSQDPQTEGTR
partner: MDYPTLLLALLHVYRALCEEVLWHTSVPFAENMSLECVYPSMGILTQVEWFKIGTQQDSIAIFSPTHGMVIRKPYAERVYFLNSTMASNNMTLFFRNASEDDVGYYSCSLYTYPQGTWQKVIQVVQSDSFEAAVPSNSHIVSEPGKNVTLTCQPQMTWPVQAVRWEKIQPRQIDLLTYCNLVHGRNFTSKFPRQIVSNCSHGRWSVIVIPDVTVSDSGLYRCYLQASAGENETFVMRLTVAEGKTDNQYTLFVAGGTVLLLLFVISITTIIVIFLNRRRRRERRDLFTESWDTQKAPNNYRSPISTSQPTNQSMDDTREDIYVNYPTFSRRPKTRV
B2: Poliovirus receptor (Homo sapiens), P15151 (parent)
chain: B1 chain
partner: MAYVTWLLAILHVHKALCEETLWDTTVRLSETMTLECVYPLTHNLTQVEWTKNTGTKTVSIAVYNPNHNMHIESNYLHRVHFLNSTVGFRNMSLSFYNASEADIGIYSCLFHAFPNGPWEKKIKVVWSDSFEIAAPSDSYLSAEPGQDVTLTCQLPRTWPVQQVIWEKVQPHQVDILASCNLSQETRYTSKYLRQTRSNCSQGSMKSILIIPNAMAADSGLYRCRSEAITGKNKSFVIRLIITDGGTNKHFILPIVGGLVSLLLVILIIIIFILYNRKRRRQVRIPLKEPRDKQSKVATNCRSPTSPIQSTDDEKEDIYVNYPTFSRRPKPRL
B3: CD226 antigen (Mus musculus), Q8K4F0 (parent)
chain: B2 partner
partner: B1 chain

One assay covers variants of B1. Particulars: with cd226_human CD226, Q15762.
As for MARAMAAAWPLLLVALLVLSWPPPGTGDVVVQAPTQVPGFLGDSVTLPCYLQVPNMEVTHVSRLTWARHGESGSMAVFHQTQGPSYSESKRLEFVAARLGAELRNASLRMFGLRVEDEGNYTCLFVTRPQGSRSVDIWLRVLAKPQNTAEVQKVQLTGEPVPMARCVSTGGRPPAQITWHSDLGGMPNTSQVPGFLSGTVTVTSLWILVPSSQVDGKNVTCKVEHESFEKPQLLTVNLTVYYPPEVSISGYDNNWYLGQNEATLTCDARSNPEPTGYNWSTTMGPLPPFAVAQGAQLLIRPVDKPINTTLICNVTNALGARQAELTVQVKEGPPSEHSGISRNAIIFLVLGILVFLILLGIGIYFYWSKCSREVLWHCHLCPSSTEHASASANGHVSYSAVSRENSSSQDPQTEGTR [Q63R;F128R], the “effect of a mutation on the interaction” value was “disrupting interaction strength”.

The variants in another assay derive from B2. Particulars: with cd226_mouse Cd226, Q8K4F0.
For MARAMAAAWPLLLVALLVLSWPPPGTGDVVVQAPTQVPGFLGDSVTLPCYLQVPNMEVTHVSRLTWARHGESGSMAVFHQTQGPSYSESKRLEFVAARLGAELRNASLRMFGLRVEDEGNYTCLFVTRPQGSRSVDIWLRVLAKPQNTAEVQKVQLTGEPVPMARCVSTGGRPPAQITWHSDLGGMPNTSQVPGFLSGTVTVTSLWILVPSSQVDGKNVTCKVEHESFEKPQLLTVNLTVYYPPEVSISGYDNNWYLGQNEATLTCDARSNPEPTGYNWSTTMGPLPPFAVAQGAQLLIRPVDKPINTTLICNVTNALGARQAELTVQVKEGPPSEHSGISRNAIIFLVLGILVFLILLGIGIYFYWSKCSREVLWHCHLCPSSTEHASASANGHVSYSAVSRENSSSQDPQTEGTR [Q63R;F128R], the “effect of a mutation on the interaction” value is “disrupting interaction strength”.

Variants of B3 are the subject of another assay. Particulars: with pvr_human PVR, P15151.
Turning to MAYVTWLLAILHVHKALCEETLWDTTVRLSETMTLECVYPLTHNLTQVEWTKNTGTKTVSIAVYNPNANMHIESNYLHRVHFLNSTVGFRNMSLSFYNASEADIGIYSCLFHAFPNGPWEKKIKVVWSDSFEIAAPSDSYLSAEPGQDVTLTCQLPRTWPVQQVIWEKVQPHQVDILASCNLSQETRYTSKYLRQTRSNCSQGSMKSILIIPNAMAADSGLYRCRSEAITGKNKSFVIRLIITDGGTNKHFILPIVGGLVSLLLVILIIIIFILYNRKRRRQVRIPLKEPRDKQSKVATNCRSPTSPIQSTDDEKEDIYVNYPTFSRRPKPRL [H68A], the “effect of a mutation on the interaction” value is reported as “decreasing interaction strength”. For the variant MAYVTWLLAILHVHKALCEETLWDTTVRLSETMTLECVYPLTHNLTRVRWTKNTGTKTVSIAVYNPNSNMHIESNYLHRVHFLNSTVGFRNMSLSFYNASEADIGIYSCLFHARPNGPWEKKIKVVWSDSFEIAAPSDSYLSAEPGQDVTLTCQLPRTWPVQQVIWEKVQPHQVDILASCNLSQETRYTSKYLRQTRSNCSQGSMKSILIIPNAMAADSGLYRCRSEAITGKNKSFVIRLIITDGGTNKHFILPIVGGLVSLLLVILIIIIFILYNRKRRRQVRIPLKEPRDKQSKVATNCRSPTSPIQSTDDEKEDIYVNYPTFSRRPKPRL [Q47R;E49R;H68S;F114R], the “effect of a mutation on the interaction” value is given as “disrupting interaction strength”. The same measure, in the same setting: with MAYVTWLLAILHVHKALCEETLWDTTVRLSETMTLECVYPLTHNLTQVEWTKNTGTKTVSIAVYNPNHNMHIESNYLHRVHFLNSTVGFRNMSLSFYNASEADIGIYSCLFHAAPNGPWEKKIKVVWSDSFEIAAPSDSYLSAEPGQDVTLTCQLPRTWPVQQVIWEKVQPHQVDILASCNLSQETRYTSKYLRQTRSNCSQGSMKSILIIPNAMAADSGLYRCRSEAITGKNKSFVIRLIITDGGTNKHFILPIVGGLVSLLLVILIIIIFILYNRKRRRQVRIPLKEPRDKQSKVATNCRSPTSPIQSTDDEKEDIYVNYPTFSRRPKPRL [F114A] the entry was “disrupting interaction strength”; with MAYVTWLLAILHVHKALCEETLWDTTVRLSETMTLECVYPLTHNLTAVEWTKNTGTKTVSIAVYNPNHNMHIESNYLHRVHFLNSTVGFRNMSLSFYNASEADIGIYSCLFHAFPNGPWEKKIKVVWSDSFEIAAPSDSYLSAEPGQDVTLTCQLPRTWPVQQVIWEKVQPHQVDILASCNLSQETRYTSKYLRQTRSNCSQGSMKSILIIPNAMAADSGLYRCRSEAITGKNKSFVIRLIITDGGTNKHFILPIVGGLVSLLLVILIIIIFILYNRKRRRQVRIPLKEPRDKQSKVATNCRSPTSPIQSTDDEKEDIYVNYPTFSRRPKPRL [Q47A], “disrupting interaction strength”.
